Non-standard residues stand in square brackets, D forms with d. No end group written: not given here. Aib = CC(C)(N)C(=O)O
How the values were obtained:
[1] = target: T1, human glucagon receptor (hGR) (human, UniProt P47871 26-477); assay: cell-based or functional assay
[2] = target: T2, human glucagon-like peptide 1 receptor (hGLP-1R) (human, UniProt P43220 24-463); assay: SPA competition against 125I-labelled GLP-1 amide on hGLP-1R membranes; Cheng-Prusoff
T2 construct: whole, on cells; The assay used crude plasma membranes of the expressing 293HEK cells

[3] = target: T1, human glucagon receptor (hGR); assay: SPA competition against 125I-labelled glucagon on hGR membranes; Cheng-Prusoff
Protocol: Plates are sealed, mixed end over end, and read with a MicroBeta® scintillation counter after 12 hours of settling time at room temperature.

[4] = target: T3, mouse glucagon receptor (mGR) (mouse, UniProt Q61606 27-485); assay: SPA competition against 125I-labelled glucagon on mGR membranes; Cheng-Prusoff
T3 construct: whole, on cells; The assay used crude plasma membranes of the expressing 293HEK cells
T3 sequence (Q61606 27-485): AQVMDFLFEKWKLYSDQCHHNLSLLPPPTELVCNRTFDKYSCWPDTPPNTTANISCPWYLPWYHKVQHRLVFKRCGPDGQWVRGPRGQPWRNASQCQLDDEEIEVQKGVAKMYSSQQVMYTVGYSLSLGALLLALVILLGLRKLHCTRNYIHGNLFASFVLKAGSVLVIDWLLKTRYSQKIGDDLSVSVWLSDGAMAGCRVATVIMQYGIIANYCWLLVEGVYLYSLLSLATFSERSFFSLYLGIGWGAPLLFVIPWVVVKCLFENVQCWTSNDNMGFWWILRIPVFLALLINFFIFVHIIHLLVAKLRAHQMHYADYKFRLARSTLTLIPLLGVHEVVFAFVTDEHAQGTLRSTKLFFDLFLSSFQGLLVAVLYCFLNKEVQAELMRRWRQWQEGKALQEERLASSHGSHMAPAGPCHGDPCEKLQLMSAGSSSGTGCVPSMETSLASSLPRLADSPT

[5] = target: T4, human glucose-dependent insulinotropic peptide receptor (GIP-R) (human, UniProt P48546 22-466); assay: SPA competition against 125I-labelled GIP on human GIP-R membranes; Cheng-Prusoff
T4 construct: whole, on cells; The assay used crude plasma membranes of the expressing CHO-S cells; also called human GIP-R; hGIP-R
T4 sequence (looked up): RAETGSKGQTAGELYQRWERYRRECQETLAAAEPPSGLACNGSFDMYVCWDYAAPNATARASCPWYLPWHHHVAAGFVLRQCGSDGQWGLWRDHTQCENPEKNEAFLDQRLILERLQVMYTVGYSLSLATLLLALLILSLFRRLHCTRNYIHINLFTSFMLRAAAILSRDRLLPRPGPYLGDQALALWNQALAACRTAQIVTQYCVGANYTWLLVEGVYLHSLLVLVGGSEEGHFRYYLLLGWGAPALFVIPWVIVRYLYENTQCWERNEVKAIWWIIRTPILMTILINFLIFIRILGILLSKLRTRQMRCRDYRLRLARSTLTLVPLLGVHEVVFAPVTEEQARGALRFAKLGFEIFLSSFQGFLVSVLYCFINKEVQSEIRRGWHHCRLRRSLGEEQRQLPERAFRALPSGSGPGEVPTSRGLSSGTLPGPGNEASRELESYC

T1 sequence (P47871 26-477): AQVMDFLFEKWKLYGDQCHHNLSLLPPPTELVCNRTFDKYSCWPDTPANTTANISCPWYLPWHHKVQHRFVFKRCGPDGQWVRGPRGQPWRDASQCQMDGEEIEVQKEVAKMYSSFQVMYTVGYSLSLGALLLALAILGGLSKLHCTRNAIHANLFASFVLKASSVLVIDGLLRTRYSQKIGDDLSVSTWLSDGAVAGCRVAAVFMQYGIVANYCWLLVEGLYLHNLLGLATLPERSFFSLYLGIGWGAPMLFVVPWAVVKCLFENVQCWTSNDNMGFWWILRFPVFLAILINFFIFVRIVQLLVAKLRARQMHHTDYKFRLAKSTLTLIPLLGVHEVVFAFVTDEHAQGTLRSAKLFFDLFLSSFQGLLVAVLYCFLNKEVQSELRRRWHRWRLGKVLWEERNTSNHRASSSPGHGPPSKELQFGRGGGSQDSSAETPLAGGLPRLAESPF

B1: compound of SEQ ID NO: 2 (peptide)
peptide: HAQGTFLSDYSKYLD[Aib]KKAQEFVEWLLKTGPSSGAPPKSK-NH2
modifications: N-terminus assumed
SMILES: CC(C)C[C@H](NC(=O)[C@H](Cc1c[nH]c2ccccc12)NC(=O)[C@H](CCC(=O)O)NC(=O)[C@@H](NC(=O)[C@H](Cc1ccccc1)NC(=O)[C@H](CCC(=O)O)NC(=O)[C@H](CCC(N)=O)NC(=O)[C@H](C)NC(=O)[C@H](CCCCN)NC(=O)[C@H](CCCCN)NC(=O)C(C)(C)NC(=O)[C@H](CC(=O)O)NC(=O)[C@H](CC(C)C)NC(=O)[C@H](Cc1ccc(O)cc1)NC(=O)[C@H](CCCCN)NC(=O)[C@H](CO)NC(=O)[C@H](Cc1ccc(O)cc1)NC(=O)[C@H](CC(=O)O)NC(=O)[C@H](CO)NC(=O)[C@H](CC(C)C)NC(=O)[C@H](Cc1ccccc1)NC(=O)[C@@H](NC(=O)CNC(=O)[C@H](CCC(N)=O)NC(=O)[C@H](C)NC(=O)[C@@H](N)Cc1c[nH]cn1)[C@@H](C)O)C(C)C)C(=O)N[C@@H](CC(C)C)C(=O)N[C@@H](CCCCN)C(=O)N[C@H](C(=O)NCC(=O)N1CCC[C@H]1C(=O)N[C@@H](CO)C(=O)N[C@@H](CO)C(=O)NCC(=O)N[C@@H](C)C(=O)N1CCC[C@H]1C(=O)N1CCC[C@H]1C(=O)N[C@@H](CCCCN)C(=O)N[C@@H](CO)C(=O)N[C@@H](CCCCN)C(N)=O)[C@@H](C)O
notes: Synthetic 40-residue glucagon analog made by solid-phase synthesis on Rink amide resin
With B1 the “hGR stimulated cAMP functional assay (HTRF), relative EC50” value [1] was 0.0356 nM, the Ki [2] was 1220 nM and the Ki [3] was 0.397 nM. For the same binder, the Ki [4] was 0.494 nM and the Ki [5] was 1050 nM.

Reference: patent US20160311881A1 (Eli Lilly, published 2016)
